{
  "source": "the DeepSol protein solubility set",
  "data": [
    {"experiment": "soluble on expression in E. coli; label from the status in PepcDB or PDB records", "values": [
      {"sequence": "MPALEFFKDKERGVLDPKVFERAREVAEGLARGKLKSSQFRNYFAELRALENRFERERRKEGEELAFARLVPQLELLRAKLFYNTRSQGPLRDAKEFVEFMEEALEAGKRSPKDFEAMMKYVEAVLAYFYALAK", "soluble on expression in E. coli": "soluble"},
      {"sequence": "MGSDKIHHHHHHMSKFINPFTDYGFKLIFGREVSKDLLIEFLNDLLEGERVITDLTFLNNEQLPDYPEGRGIIYDVYCTTDTGEKIIVEMQNRMQSNFKERSIFYLSRAIVNQGRTGHDWKFEIKAVYGVFLMNFIMDKNIKLRTDVILADKETGELFSEKFRQIFIALPLFKKSEEECETNFERWIYILNNMETLKRLPFKARKAVFEKLEEIADVASMSPKERELYDNSVKVYRDYLVTMDAAEKEGIKKGMKEGMKEGLKKGLEEGLEEGLKKGREEALNIFQTAIDMKKQGIDNQLIAEKTGLPLSLIESLK", "soluble on expression in E. coli": "not soluble"},
      {"sequence": "VPTPKRPRGRPKGSKNKGAAKTRKT", "soluble on expression in E. coli": "soluble"},
      {"sequence": "MAHHHHHHMIARDPPQEGRLPDPSRLPYDDERFAEMLLEMEVNGVIDETWQDAKKARMEDVKEIANILSSLKVRDLCCVDVSEKTSNFDYMMFGTCEGARHIHLAAWAVQDADKVHRISKIKRQQTDELWEVVPVGRIVVNLMVESFREEMTLERKWAVTRSMDPLAAANAPISEGRQVKAHGLWTLTLNLQDLEDFEVDYCKDILMRQM", "soluble on expression in E. coli": "soluble"},
      {"sequence": "MAHHHHHHMGTLEAQTQGPGSMSEPLLLQDRDERGVVTLTLNRPQAFNALSEAMLAALGEAFGTLAEDESVRAVVLAASGKAFCAGHDLKEMRAEPSREYYEKLFARCTDVMLAIQRLPAPVIARVHGIATAAGCQLVAMCDLAVATRDARFAVSGINVGLFCSTPGVALSRNVGRKAAFEMLVTGEFVSADDAKGLGLVNRVVAPKALDDEIEAMVSKIVAKPRAAVAMGKALFYRQIETDIESAYADAGTTMACNMMDPSALEGVSAFLEKRRPEWHTPQPSTA", "soluble on expression in E. coli": "soluble"},
      {"sequence": "MSHGSGLVRTTCSSGGALGPAQPSEGLLDRVYPLTHGALFKVAQMGYRLLVAGFQNCRGIDIY", "soluble on expression in E. coli": "not soluble"},
      {"sequence": "DEILIDPHAVLGPVDPQLMNYPAPSILKVVEKKEPKDIDDKTLIMADIAEKAINQVRETVFNLLKDKMDEEKAREVAKILTEGRWTHDYPLTVEELRQLGLKVSTDVPEEVYELMELYPQPMMQRHPGVEFVPSPPKGEKPSFK", "soluble on expression in E. coli": "not soluble"},
      {"sequence": "MDQNIPCQFFSFENTALAVRHRKGHCFPGLVWLSGYQSDMLGSKAMLVDNFAQKNDLSCLRFDYSGHGESEGDFFQGTISRWVKESLAIFETYCEGPQILIGSSMGGWIALKLAMMLAQKNKRLAGMVLVAPAPDFTQTLVEPKLGLEEWKILEEKGYIERPAVGDEEPMPFTKGLIEDGRDNCVMKGCLDIGCPIHILQGMEDDKIPYQHTLTLMNHLPLHDVTLTLVRDADHRFSRPQDLECLETVLSILIDRINAG", "soluble on expression in E. coli": "not soluble"},
      {"sequence": "MARKKVQRKLDGWKSKEWYNIEAPAYLNRVIVGTTMAGDPSLLVGRNVETTVGELTNDMTKNNTKVILRVNNVVGDIATTDLMGHELTTDYVRSIVKRQTSRIDANVDVRTKDGFVIRVKPTCFTIKRARSSQMQAIREMMVDIVKKRASETDFETFMQEAILGRLSAAIYRQAKFIYPLRRVEIRKTQVEAMPAAAPAAPAAALEHHHHHH", "soluble on expression in E. coli": "soluble"},
      {"sequence": "MTWNPLALATALQTVPEQNIDVTNSENALIIKMNDYGDLQINILFTSRQMIIETFICPVSSISNPDEFNTFLLRNQKMMPLSSVGISSVQQEEYYIVFGALSLKSSLEDILLEITSLVDNALDLAEITEEYSHLEHHHHHH", "soluble on expression in E. coli": "soluble"},
      {"sequence": "MKITKISLFQKVLPYCSGSLAIGDLSENRTKPFDTFTSSVVVINTDQGVSGVGESCPWVSDNLNEKEVYDCLASRLLGEDPHNLKGIVKNMDAVIQGHTFAKSAIDMACWDIKAKDNGVPLFELLGGMLTDGAPLYRCVMEQEHDKIKAEVEQYRASGYKYFKLRVGIEPDKDIELIKFAANLAEPGEIVYADANCRWTLSEALEVVKAIEGLDVMIEQPCLSYEDCIKVRENTGLLIKLDELVTDLTMAKKIVRDHTADVVCIKMSRVGGLSKALEIRDFFVKKGIKVVTECMMGGEIVSAAVSHFSASTPSEFLFNTGDLHAYVTASTGNISPPTLNGRIYCNDSPGLGVEPDLTSLGTPIAIYQN", "soluble on expression in E. coli": "soluble"},
      {"sequence": "MQERHTEQDYRALLIADTPIIDVRAPIEFEHGAMPAAINLPLMNNDERAAVGTCYKQQGSDAALALGHKLVAGEIRQQRMDAWRAACLQNPQGILCCARGGQRSHIVQSWLHAAGIDYPLVEGGYKALRQTAIQATIELAQKPIVLIGGCTGSGKTLLVQQQPNGVDLEGLARHRGSAFGRTLQPQLSQASFENLLAAEMLKTDARQNLRLWVLEDESRMIGSNHLPECLRERMTQAAIAVVEDPFEIRLERLNEEYFLRMHHDFTHAYGDEQGWQEYCEYLHHGLSAIKRRLGLQRYNELAARLDAALTTQLTTGSTDGHLAWLVPLLEEYYDPMYRYQLEKKAEKVVFRGEWAEVAEWVKAR", "soluble on expression in E. coli": "soluble"},
      {"sequence": "MSLADWQEITGGITAPKGYRAAGITAGLKPSGLPDLALIVSDVEAIASGVFTTSQVKAACVDYCRQRLQAKQSARAILCNAGQANAATGSQGIKDAEESAELLAKELNISPELILLASTGVIGQRIKMDALRNGIPKLIASLTDTGSDAAAGAIITTDLVTKSIALETTIGDRPVRIGGIAKGSGMIHPNMATMLAFVTCDAAVSSHLWQQMLTRAADRSFNSITVDGDTSTNDSLIALANGQSRTPAITEVGAESEKLEAMLTAVCQHLAKAIARDGEGATCLIEVQVTGAHDEQAARQIAKTIAGSSLVKSAIFGRDPNWGRIAAAAGRAGVPFEQENLQIQLGDFLLLDNGQPLPFDRAAASAYLKQAATGAYLQQDTVLISVKVGNGHGTGKAWGCDLSYDYVKINAEYTTEGHHHHHH", "soluble on expression in E. coli": "soluble"},
      {"sequence": "MGHHHHHHSHMNSRRRKAQFFLGTTNKRAKTVVLHIDGLDDTSRRNLCEEALLKIKGVISFTFQMAVQRCVVRIRSDLKAEALASAIASTKVMKAQQVVKSESGEEMLVPFQDTPVEVEQNTELPDYLPEDESPTKEQDKAVSRVGSHPEGGASWLSTAANFLSRSFYW", "soluble on expression in E. coli": "not soluble"},
      {"sequence": "TLDEVKSLWDPRGISGTETASPQSDTPQAVSGASQPRWLRLSNGKQVDLRDWKVVLFMQGHCPYCHKFDPVLKQLAGQYGFSVFSYTIDGQGDDAFPEALPAPPDVMQTFFPNIPVATPTTFLVNVNTLAAYPILQGATDAQGFMARVDTVFQ", "soluble on expression in E. coli": "not soluble"},
      {"sequence": "MPEQLNTRVEDCFQLAESFFKRPFKRPVVSLKLRGQKAGVAHLHENLLRFNPQLYRENTEDFLKQTVAHEVAHLIAHQLFGERIQPHGEEWQLIMRGVYELPPNRCHTYDVKRRSVTRYIYRCPCAESDFPFSAQRHKLVAQGRRYLCRRCRQTLVYSGETRVELEHHHHHH", "soluble on expression in E. coli": "not soluble"},
      {"sequence": "SKVKEGKDLIVGLDIGTSKIVAIVAEMKPEGGFEIIGLGSHLSRGLKKGVVVNIEATVNAIQRALEEVELMAGCRISEVYAGIAGNHIRGFNSHGMVAIKDKEVTQADVEKVMETAKAVNIPADQ", "soluble on expression in E. coli": "not soluble"},
      {"sequence": "MAHHHHHHMDNLFYYMIIQNDRIQPIIVRQPQTVIIHSQPKLPITLDLPPQNIILKNEDPQPIIVRQSNPNIIIEKSQNDFYNHPNFHIGLHDKVNSMSDINNTNIKEQPIKDNMIEDMQNINNADTQFYYNNQNVINENNVLPTHYSYLNNGVFNKEHNYDPYNFTLYSNK", "soluble on expression in E. coli": "not soluble"},
      {"sequence": "MSELSQLSPQPLWDIFAKICSIPHPSYHEEALAAHILEWAKEKGIYAERDQVGNILLRKAATAGMENRKPVVLQAHLDMVPQKNNDTVHDFTTDPIQPYVDGEWLKARGTTLGADNGIGMASALAVLADPSVEHGPLEVLLTMTEEAGMDGAFGLQPNWLQGEILINTDSEEEGEIYMGCAGGIDFITRLPLVREVPPAGYQTLKLTIKGLKGGHSGGDIHLGLGNANKLLARFLFEQAEALDIRILDLNGGTLRNAIPREAFATLSLPAANVEQLKTLSQDYLAVLKNELSAVEKNLTVLVEANDSNEHPLTQDSRDRLLGLLNATPNGVIRMSDDVKGVVETSLNLGVVTMEDDHAEIICLIRSLIDSGKDAVVGTLTALGQLAGAKTSPKGGYPGWQPDAHSPVMALVRETYQKQFNKTPNIMVIHAGLECGLFKKPYPDMDMVSIGPTITGPHSPDEQVHIGSVDLYWKLLTELLKAIPPRALEHHHHHH", "soluble on expression in E. coli": "soluble"},
      {"sequence": "GHHHHHHAIAENLYFQSNSHDGSNFSNKFSAHKDVVEDLLRKDTVGLVTFQDFRARREYLERCAVAEAACQNASRRAEELETKKKRVKRANLSRLSFGDSLEDQEENSVEFAKITRFASSKKANGVGFNTSGQDIVKEPDVFSPKEEGFFGKQNRKIGMDPGVDTSFLPDRDREQEERLERERLKQQWLSEQERVKNEEIDIIYSIWDGRGQRKLLSCKKGTTIAKFLSIVQQKVSTLKHCKVEDLMFIKEDMIIPHHLSFYDLISMKARGKNGSLFCFDVHEDIRIRNDASVEKDDSHAAKVVERRWYERNKHIYPASMWEVFDVSKNYGRVQKDFFGN", "soluble on expression in E. coli": "not soluble"},
      {"sequence": "MSLDHRLLSINTATVRRQGDLATIIEACARAQIRAISPWRDQVAHIGLPRAVEAVKATGLALSGYCRGGMFPADPARLPEVRDDNRRAVDEAEALGASCLVLVVGGLPQYARPGSAPSKDIGAARAMVEDGIGTLLEYARSAHMPLAIEPLHPMYAADRACVNTMGQALDICDRLDPERSGMLGVALDVFHVWWDPDLSAQIVRAGRDRLLAYHVCDWLVPMADMLNDRGMMGDGVIDLKAIRAQVEAQGYQGFAEVEIFSEHWWAKPMEEVLGTCISRHRSVVEGHHHHHH", "soluble on expression in E. coli": "not soluble"},
      {"sequence": "MGSDKIHHHHHHMPTVHDLDTPSILIDAARAEANIARAQAHADKNGLKLRPHIKTHKLPYWAKKQVAAGAVGITCQKIGEAEVMTDAGLSDIFLPYNILGRAKLQRLKTLHGRVTLSVTSDSMETLEGLAATFTDAGHPLQVLVECDTGMGRCGVQTADQAVALARLIDKAGGLTFGGLMTYPAAGRAAEAEAWLANAKQALAASGLACERISSGGTPDMWRSGEDSVVTEYRPGTYIYLDRYQVAKGVGTLDDCALTVLATVVSHPTATRAILDSGSKALSSDTLGLKDFGELLGAPDARVTGLSEEHGTVTLSGDAKLRIGERVRVVPDHCCVVTNLFNEVNLIDGETVLETLPVAARGKMG", "soluble on expression in E. coli": "not soluble"},
      {"sequence": "MEKIMPEEEYSEFKELILQKELHVVYALSHVCGQDRTLLASILLRIFLHEKLESLLLCTLNDREISMEDEATTLFRATTLASTLMEQYMKATATQFVHHALKDSILKIMESKQSCELSPSKLEKNEDVNTNLTHLLNILSELVEKIFMASEILPPTLRYIYGCLQKSVQHKWPTNTTMRTRVVSGFVFLRLICPAILNPRMFNIISDSPSPIAARTLILVAKSVQNLANLVEFGAKEPYMEGVNPFIKSNKHRMIMFLDELGNVPELPDTTEHSRTDLSRDLAALHEICVAHSDELRTLSNERGAQQHVLKKLLAITELLQQKQNQYTKTNDVR", "soluble on expression in E. coli": "soluble"},
      {"sequence": "MRVGIVGAGPAGVAAAVFLRRYNVHVTVFEKNRVGGLLRNAHLVENIPVLPPASGEEICKTLEKRLFESGAELIWEEVVKVENEKILTEREIHSFDYVIVASGTIPRRIPEFEVSEKVVYEFIDLPEFEKLAIYGAGDAAFDSALNALVRGKEVHLFNRGSRIRALPLLVERAKKYEKFYYHERCPILKVEEESKMVKLKTEHGVFTFDALLLSVGRLPNTSFVEPGERNFIVGDARGGFRQVSIAMGSAIETAMEILRREGTVSATLPLKEGLLNPNGEHQAG", "soluble on expression in E. coli": "soluble"},
      {"sequence": "MVQEIIVDSGDIEFLTTPKEYKQQLLSLIECARQRIFITALYLQDDEAGREILHALYQAKANFPTIEINIFVDFNRGQRGLIGEKASLGNRALYLKLAHEYPHTVNIYGVAVKRKEVFGVLHLKGMVFDEKLFYTGASINDIYLHQGERLEHHHHHH", "soluble on expression in E. coli": "not soluble"}
    ]}
  ]
}
